# Reference: PMC8274241
# Read-outs that look alike come from different tables or passages of the source.
# T1: LshCas13a (Leptotrichia shahii, UniProt P0DOC6 1-1389)
# T1 sequence: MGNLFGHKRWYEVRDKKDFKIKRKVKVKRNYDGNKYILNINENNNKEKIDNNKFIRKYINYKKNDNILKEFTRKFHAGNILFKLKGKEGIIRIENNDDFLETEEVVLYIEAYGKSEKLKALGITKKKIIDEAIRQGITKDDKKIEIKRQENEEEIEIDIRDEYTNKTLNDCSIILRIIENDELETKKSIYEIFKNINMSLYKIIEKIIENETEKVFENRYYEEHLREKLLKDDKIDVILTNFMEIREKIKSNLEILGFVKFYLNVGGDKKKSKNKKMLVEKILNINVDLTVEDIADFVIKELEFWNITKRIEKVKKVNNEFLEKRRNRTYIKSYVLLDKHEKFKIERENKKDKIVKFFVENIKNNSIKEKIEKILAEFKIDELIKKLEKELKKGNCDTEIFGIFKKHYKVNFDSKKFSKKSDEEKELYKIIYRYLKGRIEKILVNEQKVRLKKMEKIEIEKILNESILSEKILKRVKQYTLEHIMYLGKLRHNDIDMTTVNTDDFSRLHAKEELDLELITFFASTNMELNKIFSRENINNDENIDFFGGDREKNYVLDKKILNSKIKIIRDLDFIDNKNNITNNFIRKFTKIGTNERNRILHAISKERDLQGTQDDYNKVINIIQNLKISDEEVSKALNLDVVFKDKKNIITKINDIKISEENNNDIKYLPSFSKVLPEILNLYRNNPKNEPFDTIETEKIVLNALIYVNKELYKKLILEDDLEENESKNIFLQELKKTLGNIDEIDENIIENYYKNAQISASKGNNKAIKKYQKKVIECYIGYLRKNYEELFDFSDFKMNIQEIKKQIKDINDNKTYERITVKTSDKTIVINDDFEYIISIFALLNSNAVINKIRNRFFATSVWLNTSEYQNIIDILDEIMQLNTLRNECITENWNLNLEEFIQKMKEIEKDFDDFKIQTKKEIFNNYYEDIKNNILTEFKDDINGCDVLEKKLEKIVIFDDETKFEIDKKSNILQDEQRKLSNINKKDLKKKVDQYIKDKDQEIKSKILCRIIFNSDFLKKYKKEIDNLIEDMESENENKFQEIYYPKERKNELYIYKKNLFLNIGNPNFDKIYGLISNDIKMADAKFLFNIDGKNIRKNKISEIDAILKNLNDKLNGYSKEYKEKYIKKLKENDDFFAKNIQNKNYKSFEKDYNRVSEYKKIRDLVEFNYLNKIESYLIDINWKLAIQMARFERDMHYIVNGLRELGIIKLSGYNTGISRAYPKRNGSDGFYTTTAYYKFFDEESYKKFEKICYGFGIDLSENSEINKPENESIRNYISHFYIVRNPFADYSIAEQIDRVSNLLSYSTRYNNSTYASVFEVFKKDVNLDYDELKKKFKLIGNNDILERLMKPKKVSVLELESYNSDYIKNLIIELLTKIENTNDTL
# How the values were obtained:
# Assay in all cases: cryo-EM
# [1] = target: T1, LshCas13a
# [2] = target: T1, LshCas13a; remark: listed apart in the source
# [3] = target: T1, LshCas13a; remark: listed apart in the source
binder,measurement,setting,value
Lsh crRNA (56-nt as named) + RNA6 (8-nt anti-tag) (mixed) RNA 1: GGCCACCCCAAUAUCGAAGGGGACUAAAACUAGAUUGCUGUUCUACCAAGUAAUCCAU RNA 2: GAUGGAUUACUUGGUAGAACAGCAAUCUAGUUUUAGU,binding result,[1],binds
Lsh crRNA alone (structured_RNA) RNA: GGCCACCCCAAUAUCGAAGGGGACUAAAACUAGAUUGCUGUUCUACCAAGUAAUCCAU,binding result,[2],binds
Lsh crRNA + RNA4 (no anti-tag) (mixed) RNA 1: GGCCACCCCAAUAUCGAAGGGGACUAAAACUAGAUUGCUGUUCUACCAAGUAAUCCAU RNA 2: GAUGGAUUACUUGGUAGAACAGCAAUCUACAAAAUCA,binding result,[3],binds
